Measured values: patent publication US20250277030A1, “ANTI-NAPI2B ANTIBODIES AND METHODS OF USE” (Zymeworks BC Inc., priority 2022, published 2025)

Columns and labels:
[1] = molecular target: T1, human NaPi2b (Homo sapiens, UniProt O95436); assay: Flow cytometry binding to HEK293-6e cells transfected with human NaPi2b (Example 5); settings: transfected HEK293-6e cells, 18-24 hours at 4° C.
T1 construct: host or cells: HEK293-6e
T1 sequence (O95436 1-690): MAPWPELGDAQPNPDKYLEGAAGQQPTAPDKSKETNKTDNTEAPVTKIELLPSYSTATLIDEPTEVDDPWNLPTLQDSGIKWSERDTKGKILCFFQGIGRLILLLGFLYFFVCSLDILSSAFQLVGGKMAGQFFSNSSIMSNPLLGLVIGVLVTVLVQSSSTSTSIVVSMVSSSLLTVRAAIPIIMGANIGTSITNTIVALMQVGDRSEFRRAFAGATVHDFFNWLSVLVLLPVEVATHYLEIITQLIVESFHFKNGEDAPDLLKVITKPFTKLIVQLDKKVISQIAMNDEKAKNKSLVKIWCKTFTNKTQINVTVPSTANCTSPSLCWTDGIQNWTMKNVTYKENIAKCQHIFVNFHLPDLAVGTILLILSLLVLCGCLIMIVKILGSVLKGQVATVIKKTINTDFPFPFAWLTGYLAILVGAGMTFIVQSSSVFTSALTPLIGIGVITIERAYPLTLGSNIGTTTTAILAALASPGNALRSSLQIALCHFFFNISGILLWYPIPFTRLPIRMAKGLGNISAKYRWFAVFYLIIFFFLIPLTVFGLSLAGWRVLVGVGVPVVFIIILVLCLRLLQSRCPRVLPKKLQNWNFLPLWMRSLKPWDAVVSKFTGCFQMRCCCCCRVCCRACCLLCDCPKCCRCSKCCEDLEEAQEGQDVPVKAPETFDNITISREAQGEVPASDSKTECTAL
Protocol: The binding cross-reactivity of humanized antibody variant v29456 to human, cynomolgus and mouse NaPi2b was assessed by flow cytometry using HEK293-6e transfected cells.
Briefly, HEK293-6e cells were transfected for ˜24 hours to transiently express human NaPi2b, cynomolgus or mouse NaPi2b, at 1 μg of DNA per 1 million cells. Following transfection, 50,000 cells per well were seeded in V-bottom 96-well plates and incubated with 200 nM of primary antibody for 18-24 hours at 4° C. to prevent internalization. Post-incubation, cells were washed and stained with anti-Human IgG Fc AF647 conjugate (Jackson Immuno Research Labs, West Grove, PA, Cat. No. 109-605-098, Lot. No. 124868) at 4° C. for 1 hour. Following staining and washing, fluorescence was detected by flow cytometry on BD LSRFortessa™ Cell Analyzer (BD Biosciences, Franklin Lake, NJ) with 10,000 minimum events collected per well. The AF647/APC-A GeoMean (fluorescence signal geometric mean, proportional to anti-Human AF647 binding) was calculated for the live singlet cell population for each primary antibody using FlowJo™ v8 software (BD Biosciences, Franklin Lake, NJ). The Bmax and Kd of each primary antibody were calculated using GraphPad Prism Version 9 (GraphPad Software, San Diego, CA)

[2] = Stability (fragmentation) in mouse plasma at 37° C. by LC-MS; format: in vitro ADME; settings: for apparent % desired proteoforms: Mouse Plasma 37° C., 0.5 mg/ml
Protocol: Samples were removed after 0, 7 and 14 days and stored at −80° C. until characterization. For characterization, samples were thawed at room temperature and 50 μg were incubated with 5 μg of recombinant EndoS endoglycosidase for one hour at room temperature. An immunoprecipitation slurry was generated by a 45 min incubation of 95 μL/sample of magnetic Sepharose streptavidin-coated beads with 15 μg/sample of biotinylated goat anti-Human IgG Fc capture antibody, followed by 4 washes with PBS pH 7.4 with the aid of a DynaMag™-2 magnet (Invitrogen™).
After deglycosylation, plasma-incubated samples were incubated with 95 μL of the immunoprecipitation slurry for 1.5 hrs at room temperature. Then, the slurry underwent 6 washes with PBS pH 7.4 and 2 washes with LC-MS-grade water with the aid of a DynaMag™-2 magnet (Invitrogen™). A final wash with PBS pH 7.4 was performed before elution. Protein was eluted by incubating beads with 35 μL of LC-MS grade water with 20% acetonitrile and 0.1% formic acid for one hour at room temperature. PBS samples were not immunoprecipitated.
5 μL of the eluted sample were transferred to glass inserts in LC-MS vials. For LC-MS analysis, 1 μL of sample were injected into a Waters™ BioSuite Phenyl Column, 1000 Å, 10 μm, 4.6 mm×75 mm using a Waters™ ACQUITY™ UPLC I-Class HPLC system coupled to a Waters™ Synapt™ G2-Si HDMS with a column temperature of 70 C and a flow rate of 0.3 mL/min. Mobile phases consisted of A: LC-MS grade water with 0.1% v/v formic acid, 0.025 v/v trifluoroacetic acid and 10% v/v isopropyl alcohol in, and B: acetonitrile with 0.1% v/v formic acid and 10% v/v isopropyl alcohol. The column was pre-equilibrated in 10% mobile phase B before injection. Then, a 20 min 10 to 27% mobile phase B gradient was applied, followed by a 2 min 27 to 90% mobile phase B gradient and a column wash of 2 min at 99% mobile phase B.
The column was re-equilibrated to 10% mobile phase B for 2 minutes between runs. ESI was performed in positive mode with 3 kV of capillary voltage, 120 C source temperature, 100 V sampling cone voltage, source offset of 80 V, source gas flow of 0 ml/min, desolvation temperature 500 C, cone gas flow 0 μL/Hr, desolvation gas flow […], nebuliser gas flow 6.5 bar. Data format was continuum with analyser set in sensitivity mode, with a m/z range from 500 to 7000.
Peak integration, MS deconvolution and mass assignments were performed in Protein Metrics Byos® v4.0 using a deconvolution window of 60000-160000 Da with an m/z range of 1000-4000. For all time points, the highest intensity deconvoluted mass was assigned as the reference mass of v29456. […]

Bmax (APC-A GeoMean), Hu NaPi2b [1]: 2,538 APC-A GeoMean
Kd ([1]; highest antibody concentration 200 nM, read-out: Apparent Kd (nM), Hu NaPi2b): 5.2 nM
B1: v29456: humanized anti-NaPi2b IgG1/kappa antibody H1L2; VH SEQ ID NO:24, VL SEQ ID NO:29 (antibody, V domains shown)
VH: QVQLVQSGAEVKKPGASVKVSCKASGFTFTSYNVHWVRQAPGQGLEWMGAISPGNGDLSYAQKFQGRVTMTRDTSTSTVYMELSSLRSEDTAVYYCARGRTGMGAVDYWGQGTLVTVSS
VL: DVQMTQSPSSLSASVGDRVTITCRASQDVYSYLNWYQQKPGKAVKLLIYYTSRLQSGVPSRFSGSGSGTDYTLTISSLQPEDFATYYCQQYNIFPWTFGQGTKLEIK
modifications: v29452, v29456, v29460 VH (H1); v29453, v29454, v29455, v29456 VL (L2)
fragmentation in mouse plasma, in words ([2]; 37° C., 7 and 14 days): no evidence of fragmentation
apparent % desired proteoforms ([2]; 0 days): 99.9%
apparent % desired proteoforms ([2]; 7 days): 100.0%
apparent % desired proteoforms ([2]; 14 days): 98.4%
